# According to paper doi:10.1101/2025.04.25.650734 (bioRxiv, 2025):
# B1: mTFP1-tagged Kir2.1 (natural protein)
# chain: MGSVRTNRYSIVSSEEDGMKLATMAVANGFGNGKSKVHTRQQCRSRFVKKDGHCNVQFINVGEKGQRYLADIFTTCVDIRWRWMLVIFCLAFVLSWLFFGCVFWLIALLHGDLDASKESKACVSEVNSFTAAFLFSIETQTTIGYGFRCVTDECPIAVFMVVFQSIVGCIIDAFIIGAVMAKMAKPKKRNETLVFSHNAVIAMRDGKLCLMWRVGNLRKSHLVEAHVRAQLLKSRITSEGEYIPLDQIDINVGFDSGIDRIFLVSPITIVHEIDEDSPLYDLSKQDIDNADFEIVVILEGMVEATAMTTQCRSSYLANEILWGHRYEPVLFEEKHCYKVDYSRFHKTYEVPNTPLCSARDLAEKKYILSNANSFCYENEVALTSKEEEDSENGVPESTSTDSPPGIDLHNQASVPLEPRPLRRESEI
# Columns and labels:
# Experiment in all cases: single-particle TIRF colocalisation with photobleaching step counting
# [1] = biological target: mTFP-K-K, dimer of linked wild type Kir2.1 subunits
# [2] = biological target: mTFP-K-K-K-K, linked tetramer of wild type Kir2.1 subunits
# [3] = biological target: mTFP-K-Q, dimer of a wild type Kir2.1 subunit linked to a Kir2.1-K49Q subunit
# [4] = biological target: mTFP-K-Q-K-Q tetramer of concatenated Kir2.1 subunits
# [5] = biological target: mTFP-Q-K-K-Q tetramer of concatenated Kir2.1 subunits
# [6] = biological target: mTFP-Q-K-Q-Q tetramer of concatenated Kir2.1 subunits
# [7] = biological target: tetrameric Kir2.1 construct with three SUMO1 binding sites
# [8] = biological target: the molecule itself
molecule,measurement,setting,value
mCherry-SUMO1 (from UniProt P63165-1 1-97) (natural protein),stoichiometry N (SUMO1 monomers per channel),[1],2
same,stoichiometry N (SUMO1 monomers per channel),[2],2
same,stoichiometry N (SUMO1 monomers per channel),[3],2
same,stoichiometry N (SUMO1 monomers per channel),[4],2
same,stoichiometry N (SUMO1 monomers per channel),[5],1
same,stoichiometry N (SUMO1 monomers per channel),[6],1
same,stoichiometry N (SUMO1 monomers per channel),[7],2
"mTFP-K-K, dimer of linked wild type Kir2.1 subunits",stoichiometry N,[1],2
"mTFP-K-Q, dimer of a wild type Kir2.1 subunit linked to a Kir2.1-K49Q subunit",stoichiometry N,[3],2
B1,stoichiometry N,[8],4
